This assay concerns the target Polθ helicase domain (amino acids 1–894), O75417. Put plainly: SEC; calibrated size exclusion chromatography of purified Polθ-h. Conditions: remark: other sources report otherwise. For orientation: SEC sorts molecules by how far they enter the pores of the column.

For orientation: stoichiometry N means the number of molecules, sites or subunits per partner or assembly.

B1: Polθ helicase domain (amino acids 1–894), O75417 1-894 (domain or fragment)
chain: MNLLRRSGKRRRSESGSDSFSGSGGDSSASPQFLSGSVLSPPPGLGRCLKAAAAGECKPTVPDYERDKLLLANWGLPKAVLEKYHSFGVKKMFEWQAECLLLGQVLEGKNLVYSAPTSAGKTLVAELLILKRVLEMRKKALFILPFVSVAKEKKYYLQSLFQEVGIKVDGYMGSTSPSRHFSSLDIAVCTIERANGLINRLIEENKMDLLGMVVVDELHMLGDSHRGYLLELLLTKICYITRKSASCQADLASSLSNAVQIVGMSATLPNLELVASWLNAELYHTDFRPVPLLESVKVGNSIYDSSMKLVREFEPMLQVKGDEDHVVSLCYETICDNHSVLLFCPSKKWCEKLADIIAREFYNLHHQAEGLVKPSECPPVILEQKELLEVMDQLRRLPSGLDSVLQKTVPWGVAFHHAGLTFEERDIIEGAFRQGLIRVLAATSTLSSGVNLPARRVIIRTPIFGGRPLDILTYKQMVGRAGRKGVDTVGESILICKNSEKSKGIALLQGSLKPVRSCLQRREGEEVTGSMIRAILEIIVGGVASTSQDMHTYAACTFLAASMKEGKQGIQRNQESVQLGAIEACVMWLLENEFIQSTEASDGTEGKVYHPTHLGSATLSSSLSPADTLDIFADLQRAMKGFVLENDLHILYLVTPMFEDWTTIDWYRFFCLWEKLPTSMKRVAELVGVEEGFLARCVKGKVVARTERQHRQMAIHKRFFTSLVLLDLISEVPLREINQKYGCNRGQIQSLQQSAAVYAGMITVFSNRLGWHNMELLLSQFQKRLTFGIQRELCDLVRVSLLNAQRARVLYASGFHTVADLARANIVEVEVILKNAVPFKSARKAVDEEEEAVEERRNMRTIWVTGRKGLTEREAAALIVEEARMILQQDLVEM
For the molecule B1, the stoichiometry N came out at 4.

Source of the values: article PMC9023281.
